Results on four molecules are retold here after patent US20060134122A1, “Peptides of syndecan-1 for inhibition of cancer” (priority 2004, published 2006).

Assay [1] concerns human microvascular endothelial cells (HMECs). The assay is described as follows: Apoptosis of serum-starved HMEC. It counts as cell-based. The settings on record: for cell death / protection from apoptosis, agent alone: VEGF 100 ng/ml, FGF 100 ng/ml, hScd-1ED 30 ug/ml. On the procedure:
FIGS. 17A-B—Competition with soluble Sdc-1 ectodomain causes enhanced apoptosis of human microvascular endothelial cells (HMECs) in the presence of FGF. (FIG. 17A) HMEC-1 cells were plated overnight on gelatin, then starved for 24 hr to induce the intrinsic pathway of apoptosis. Apoptotic cells were easily observed by DIC microscopy. Examples of apoptotic cells are denoted by black arrows, living cells by red arrows. Cells were treated with 100 ng/ml VEGF, 100 ng/ml FGF, FGF+30 ug/ml hScd-1ED or hScd-1ED alone. […] (FIG. 17B) Quantification of % protection from apoptosis by each treatment. […] VEGF has no effect on this pathway, as it affects the extrinsic pathway of apoptosis which is not induced by serum starvation.
Finally, the inventors performed used human microvascular endothelial cells (HMECs), which also express Sdc-1, as well as the αvβ3 and αvβ5 integrins, to test the theory that endothelial cells undergoing angiogenesis in response to fibroblast growth factor, a common angiogenic agent, will enter apoptosis and die unless the FGF signal is accompanied by a coordinate signal from the αvβ3 integrin. The inventors hypothesis was that recombinant ectodomain of Sdc-1 would block the signal from the αvβ3 integrin and induce apoptosis in the presence of FGF. HMEC cells grown in low serum conditions spontaneously enter apoptosis. […] In fact, treatment with FGF together with the soluble ectodomain protein induced apoptosis beyond that of the low serum condition alone (FIGS. 17A-B).

In a further assay the test system is B82L fibroblasts. The assay is described as follows: B82L cell attachment and spreading. It counts as cell-based, mouse. The text has this: FIGS. 11A-F—Downregulation of mouse Sdc-1 expression by siRNA blocks αvβ5-dependent cell attachment and spreading on VN. FACS analysis for (FIG. 11A) mouse syndecan-1 (mAb 281.2), (FIG. 11B) αv integrin subunit (mAb H9.2B8), (FIG. 11C) mouse Syndecan-4 (mAb KY8.2), (FIG. 11D) human syndecan-1 (mAb B-B4) and (FIG. 11E) FcR^ecto-hS1 chimera (FITC-conjugated hIgG) expression against isotype IgG controls (red-fill) in vector^NEO (FIGS. 11A-C), human syndecan-1 (FIG. 11D) and FcR^ecto-hS1 (FIG. 11E) expressing B82L cells 48 h after transfection with either 600 nM control (Control) or mouse syndecan-1-specific siRNA (siRNA). (FIG. 11F) B82L^NEO empty vector-transfected control cells and B82L cells expressing human syndecan-1 or the FcR^ecto-hS1 chimera were transfected with control or mouse syndecan-1-specific siRNA and seeded on wells coated with either 5 μg/mL VN alone or a mixed substratum of VN plus 60 μg/mL of antibody directed against mouse syndecan-1 (281.2), human syndecan-1 (B-B4) or the FcR^ecto-hS1 chimera (hIgG). Cells were incubated at 37° C. for 2 h, fixed, and stained with rhodamine-conjugated phalloidin.
FIGS. 12A-B—B82L cell spreading on VN is blocked by recombinant Scd-1ED. (FIG. 12A) B82L fibroblasts were plated on 5 μg/mL VN in the absence of other treatment, or in the presence of 30 μM GST, 1-30 μM GST-mS1ED or 30 μM GST-mS4ED (inset), then fixed and stained with rhodamine-phalloidin for visualization. (FIG. 12B) Quantification of cell adhesion in triplicate samples (±S.E.) plated either with no additions, or concentrations of GST-mS1ED ranging from 0-30 μM. […]
The failure of NEO cells to engage the mixed substratum is indicative of the efficient blockade of mouse Sdc-1 expression by the siRNA. It is unlikely that the mouse Sdc-1-siRNA treatment has any non-specific cellular effects since spreading on VN is specifically rescued by the expression of full-length human Sdc-1 (hS1, FIG. 11F). Spreading of the B82L-hS1 cells is indistinguishable from parental cells. However, spreading on VN is not recovered in cells expressing the FcR^ecto-hS1 chimera—a construct in which the syndecan's ectodomain is replaced by the ectodomain of the human Fcγ receptor Ia (FcR^ecto-hS1)—regardless of whether the cells are plated on VN alone, or VN supplemented with 60 μg/mL of hIgG to engage the FcR^ecto-hS1 construct.
Recombinant Sdc-1 ectodomain competitively blocks αvβ5 integin activity. To test whether soluble Sdc-1 ectodomain will compete with the syndecan activation of the αvβ5 integrin, B82L cells were plated on 5 μg/mL VN in the presence of a recombinant GST fusion protein containing either the ectodomain of mouse Sdc-1 (GST-mS1ED) or human Sdc-1 (GST-hS1ED; data not shown).

Assay [2] deals with mouse aortic endothelial cells. Description: Mouse aortic endothelial cell spreading on VN. It counts as cell-based. From the text: Secondly, they targeted Sdc-1 expression cells using siRNA.

Consider VEGF [reference compound], for which the “cell death / protection from apoptosis, agent alone” value in assay [1] (starved 24 hr) is on record as “no effect”.

B1: GST-hS1ED: recombinant GST fusion protein containing the ectodomain of human Sdc-1 (protein)
chain: QIVATNLPPEDQDGSGDDSDNFSGSGAGALQDITLSQQTPSTWKDTQLLTAIPTSPEPTGLEATAASTSTLPAGEGPKEGEAVVLPEVEPGLTAREQEATPRPRETTQLPTTHQASTTTATTAQEPATSHPHRDMQPGHHETSTPAGPSQADLHTPHTEDGGPSATERAAEDGASSQLPAAEGSGEQDFTFETSGENTAVVAVEPDRRNQSPVDQGATGASQGLLDRKEVLG
modifications: left off: a dimerising Fc or GST
Take B1: the “cell attachment and spreading on VN” value in the assay on B82L fibroblasts (5 μg/mL VN, S1ED 1-30 μM, GST and GST-mS4ED 30 μM) is “increasing blockade”. The “lowest concentration tested at which competition occurs” value in the assay with B82L fibroblasts (cells plated on 5 μg/mL VN) amounted to 1 µM.

B2: hScd-1ED: soluble human Sdc-1 ectodomain used as competitor on HMEC cells (protein, UniProt P18827 23-254, looked up)
extracellular domain: QIVATNLPPEDQDGSGDDSDNFSGSGAGALQDITLSQQTPSTWKDTQLLTAIPTSPEPTGLEATAASTSTLPAGEGPKEGEAVVLPEVEPGLTAREQEATPRPRETTQLPTTHLASTTTATTAQEPATSHPHRDMQPGHHETSTPAGPSQADLHTPHTEDGGPSATERAAEDGASSQLPAAEGSGEQDFTFETSGENTAVVAVEPDRRNQSPVDQGATGASQGLLDRKEVLG
modifications: extracellular domain
B2: the “cell death in 15% serum” value in assay [1] (control cells in 15% serum, not shown) is “no effect”. In addition, the “apoptosis in the presence of FGF” value in assay [1] (starved 24 hr, 100 ng/ml FGF + 30 ug/ml hScd-1ED) was “dramatically increases apoptosis”. Besides, in assay [1] (starved 24 hr), the “cell death / protection from apoptosis, agent alone” value was “protective effect”.

B3: Sdc-1 ectodomain: recombinant Sdc-1 ectodomain competitor; species and fusion not stated at this place (protein)
chain: QIVATNLPPEDQDGSGDDSDNFSGSGAGALQDITLSQQTPSTWKDTQLLTAIPTSPEPTGLEATAASTSTLPAGEGPKEGEAVVLPEVEPGLTAREQEATPRPRETTQLPTTHQASTTTATTAQEPATSHPHRDMQPGHHETSTPAGPSQADLHTPHTEDGGPSATERAAEDGASSQLPAAEGSGEQDFTFETSGENTAVVAVEPDRRNQSPVDQGATGASQGLLDRKEVLG
As to B3, in assay [2], the “competitor concentration at which spreading on VN is blocked” value turned out to be 1 µM.
